According to patent publication US7989588B2, “Cell permeable peptide” (Osaka University, priority 2005, dated 2011):

System: A431 cells
Assay: Evaluation of intracellular transfer ability of peptide (cytotoxicity test by PSIF; MTT assay)
Format: cell-based, human
Conditions: 5 μL culture supernatant containing fusion body of peptide and PSIF, cycloheximide 10 μg/mL, 24 hours, viability of TAT peptide (Tat 48-60)-PSIF group taken as 100%
Procedure: Subsequently, using a fusion body of the peptide and PSIF (protein synthesis inhibitory factor) obtained by recombining each library gene in a PSIF-expressing vector, the intracellular transfer activity of the peptide was evaluated using the cytotoxicity by PSIF as an indicator. […] The screening was performed using a supernatant of the culture of Escherichia coli producing the fusion body of the peptide and PSIF. As a result, it can be confirmed that the clone having the ability to penetrate into the cell is selectively enriched as the panning is repeated. It was successful to yield many clones having a higher introduction efficiency than TAT peptide currently described to be the most excellent in introduction efficiency.
The plasmids collected from the library (input) made and the libraries after the 2nd, 3rd and 4th panning were treated with NcoI (Toyobo Co., Ltd.) and NotI. A plasmid expressing the fusion body of the peptide and PSIF was constructed by incorporating the treated plasmid into PSIF expression vector pY7 (PSIF expression codons had been incorporated into pCantab5e) previously treated with NcoI and NotI using a ligation kit (Takara Shuzo Co., Ltd.). […]; A04646) or Pseudomonas microbial cell exotoxin (GenBank; K01397) (FIG. 6) was utilized.
The plasmid expressing the fusion body of the peptide and PSIF was introduced into TG1 by electroporation, and resulting colonies were randomly picked up into a 96-well plate (NUNC™) and cultured overnight. To a plate in which 100 μL of the 2YT medium containing 50 μg/mL of ampicillin and 2% glucose was newly added, 10 μL of the culture medium cultured overnight was added and cultured until OD600=0.4 to 0.5. The culture was centrifuged at 3,000 rpm for 20 minutes, the supernatant was removed, and 200 μL of the 2YT medium containing 1 mM IPTG (Sigma Aldrich Inc.) and 50 μg/mL of ampicillin was added to the plate, which was then cultured at 37° C. for 12 hours. The culture was centrifuged again at 3,000 rpm for 20 minutes, and the resulting supernatant was subjected to the following screening.
A431 cells diluted at 1.0×10^4 cells/well with Opti-MEM (Invitrogen™ life technologies) were seeded in a 96-well plate, and cycloheximide (Wako Pure Chemical Industries Ltd.) at a final concentration of 10 μg/mL was added thereto. Then, 5 μL of the culture supernatant made according to the above method was added, and the cells were cultured at 37° C. under the saturated vapor pressure and 5% carbon dioxide gas phase for 24 hours. Subsequently, 10 μL/well of 5 mg/mL of MTT (Wako Pure Chemical Industries Ltd.) solution was added, and further cultured at 37° C. for 4 hours. Then, 100 μL/well of 20% SDS (Wako Pure Chemical Industries Ltd., Osaka, Japan)/0.01 N HCl was added and the plate was left stand in a dark place for 4 hours. The intracellular transfer ability of the peptide was evaluated using the cytotoxicity by PSIF introduced into the cells by the peptide as the indicator by measuring absorbance using a microplate reader (Test wave length: 595 nm/Reference wave length: 655 nm). Viability was calculated by making the viability in the group treated with the culture supernatant containing the fusion body of the TAT peptide (Tat 48-60) and PSIF 100%.

| Sequence | Viability |
| --- | --- |
| MSDPNMNPGTLGSSHILW [SEQ ID NO 10, cell permeable peptide, tested as fusion body with PSIF] | about 30% |
| GRKKRRQRRRPPQ [SEQ ID NO 17, TAT peptide (Tat 48-60) derived from HIV Tat protein, reference compound] | 100% |
| GSNFFYQHRLPFS [SEQ ID NO 1, cell permeable peptide, tested as fusion body with PSIF] | about 45% |
| SPGNQSTGVIGTPSFSNH [SEQ ID NO 11, cell permeable peptide, tested as fusion body with PSIF] | about 45% |
| SSGANYFFNAIYDFLSNF [SEQ ID NO 15, cell permeable peptide, tested as fusion body with PSIF] | about 35% |
| RRRRNRTRRNRRRVR [SEQ ID NO 4, cell permeable peptide, tested as fusion body with PSIF] | about 93% |
| GLFNWLQLRPPSW [SEQ ID NO 2, cell permeable peptide, tested as fusion body with PSIF] | about 80% |
| GILLRNQVLPPQI [SEQ ID NO 3, cell permeable peptide, tested as fusion body with PSIF] | about 65% |
| STHLQYHVNYTSRTVVSM [SEQ ID NO 8, cell permeable peptide, tested as fusion body with PSIF] | about 60% |
| SMTTMEFGHSMITPYKID [SEQ ID NO 7, cell permeable peptide, tested as fusion body with PSIF] | about 45% |
| STAPGSLQEDILDSVPA [SEQ ID NO 12, cell permeable peptide, tested as fusion body with PSIF] | about 85% |
| GIASNGQLPTPKT [SEQ ID NO 5, cell permeable peptide, tested as fusion body with PSIF] | about 35% |
| GTSRANSYDNLKSETLTQ [SEQ ID NO 16, cell permeable peptide, tested as fusion body with PSIF] | about 15% |
| YSSAYEWFNRYKQPYYEL [SEQ ID NO 14, cell permeable peptide, tested as fusion body with PSIF] | about 65% |
| SPTRPTHQGLLPVSNKYT [SEQ ID NO 13, cell permeable peptide, tested as fusion body with PSIF] | about 77% |
| SGEHTNGPSKTSVRWVWD [SEQ ID NO 6, cell permeable peptide, tested as fusion body with PSIF] | about 35% |
| QDGGTWHLVAYCAKSHRY [SEQ ID NO 9, cell permeable peptide, tested as fusion body with PSIF] | about 45% |
